From PMC10450177

Tested on: CasDinG WT (Pseudomonas aeruginosa strain 83 (extrachromosomal plasmid))
Assay: fluorescence anisotropy
Settings: 100 mM Tris pH 8.0, 1 mM TCEP, 5 mM MgCl2, +/- 1 mM AMP-PNP, 10 nM FAM-ssDNA, CasDinG 0-2.5 uM, room temperature

TCGTCACCAGTACAAACTACAACGCCTGTAGCATTCCACA [40 nt ssDNA (oligo 7)]
Kd: 26 nM
Kd (no nucleotide, 5 mM Mg2+): 25 nM
